Patent US20250290928A1, “METHOD, KIT AND DEVICE FOR DETECTING EXTRACELLULAR VESICLES” (priority 2022, published 2025)
“And” between values parts separate entries of the source, which are not always exact repeats. Equal entries are not always repeated. No end group written: not given here. *: point of attachment. 5FAM = O=C1OC2(c3ccc(O)cc3Oc3cc(O)ccc32)c2ccc(C(=O)*)cc21; TQ2 = quencher; TQ3 = quencher

Tests used:
Type in all cases: biochemical
[1] = target: T1, MMP14 in the MDA-MB-231-derived extracellular vesicles (Homo sapiens, UniProt P50281); test: Digital detection through MMP14 activity of MDA-MB-231-derived extracellular vesicles captured on Tim4-immobilized magnetic particles; details: Table 56, MB231 Present, 24 hours at 23° C.
T1 construct: in terms of intact MMP14 with a molecular weight of 70 kDa

[2] = target: T1, MMP14 in the MDA-MB-231-derived extracellular vesicles; test: Digital detection through MMP14 activity of MDA-MB-231-derived extracellular vesicles captured on anti-CD9/CD63/CD81 antibody-immobilized particles; details: for Expected value λ / Number of positives / Positive ratio: 5 h; for Expected value λ (MMP14) / Number of positives (MMP14): Example 33, 30° C., 4 h
Protocol: (§1) The concentration of the solution is 10 μg/mL.
For detection of MMP14 activity, 1 mM Custom #2 was diluted with the buffer (4) to prepare a MMP14 detection solution containing 10 μM Custom #2.
The number of the particles was increased 4-fold, and a reaction was allowed to proceed. However, the number and concentration of the particles used to fill the wells are finally the same as those in other Examples.
The concentration of the solution is 10 μg/mL. The solution was subjected to 3-fold serial dilution to prepare standard samples with seven concentrations.
For detection of MMP14 activity, 1 mM Custom #2 and a 100 µM resorufin β-D-galactopyranoside solution were diluted with the buffer (4) to prepare a MMP14 and CD9/CD63/CD81 cocktail detection solution (1) containing 10 μM Custom #2 and 5 μM resorufin β-D-galactopyranoside. In addition, the solution was diluted 2-fold with the buffer (4) to prepare a detection solution (2). Nonfluorescent resorufin β-D-galactopyranoside is degraded by β-galactosidase to produce fluorescent resorufin. In this case, the maximum wavelengths of excitation and fluorescence of resorufin are 570 nm and 585 nm, respectively.
In addition, an antibody-immobilized particle solution was prepared and stored at 4° C. until use, in the same manner as in Example 28 except that Magnosphere MS300/Carboxyl (manufactured by JSR Corporation) (hereinafter abbreviated as “MS300C”) was used as magnetic particles.
For detection of MMP14 activity, 1 mM Custom #2 was diluted with the buffer (4) to prepare a MMP14 detection solution containing 5 μM Custom #2. In addition, 1 mM Custom #2T was diluted with the buffer (4) to prepare a MMP14 detection solution containing 2.5 μM Custom #2T.
An antibody-immobilized particle solution was prepared and stored at 4° C. until use, in the same manner as in Example 28 except that: MS300C was used as magnetic particles; and blocking treatment was performed at 4° C. or room temperature through use of Blockmaster CE210 or CE510 (manufactured by Medical & Biological Laboratories Co., Ltd.) instead of Bead Blocking Buffer (manufactured by Quanterix Corporation).
For detection of MMP14 activity, 1 mM Custom #2 and 1 mM Custom #2T were diluted with the buffer (4) to prepare a MMP14 detection solution containing 5 μM Custom #2 and 2.5 μM Custom #2T serving as the reporter molecules in the same system. […]

[3] = target: T2, MMP14 in the A549-derived extracellular vesicles (Homo sapiens, UniProt P50281); test: Digital detection of A549-derived extracellular vesicles through MMP14 activity in wells (Simoa Discs)
T2 construct: host or cells: A549 (purified exosomes)
Protocol: The concentration of the solution is 20 μg/mL. […] The concentration of the solution was set to x1, and 10-fold serial dilution was performed to prepare standard samples with five concentrations.
as §1

[4] = Particle MS300C, MB231 Absent, 24 hours of reaction
[5] = Particle MS300C, MB231 Present, 24 hours of reaction
[6] = Particle Simoa, MB231 Absent, 24 hours of reaction
[7] = Particle Simoa, MB231 Present, 24 hours of reaction
[8] = Example 28, 37° C., EV 0 (BG, free of extracellular vesicles)
[9] = Example 28, 37° C., EV 1 a.u. (sample 10 μg/mL)
[10] = Example 31, 4-fold number of particles, 37° C., EV 1 a.u., single image
[11] = Example 31, 37° C., EV 1 a.u., sum of the two images
[12] = Example 27, 23° C., 5 h, EV 0 (free of extracellular vesicles)
[13] = Example 27, 23° C., 5 h, EV 0.01 a.u.
[14] = Example 27, 23° C., 5 h, EV 0.1 a.u.
[15] = Example 27, reporter 10 μM, 23° C., 5 h, EV 1 a.u. (x1=5 μg/mL)
[16] = Example 21, 37° C., 5 h, BG, EV 0 (free of extracellular vesicles, pseudopositive)
[17] = Example 21, 37° C., 5 h, ΔBG Absent, EV 0.0001 a.u.
[18] = Example 21, 37° C., 5 h, ΔBG Absent, EV 0.001 a.u.
[19] = Example 21, 37° C., 5 h, ΔBG Absent, EV 0.01 a.u.
[20] = Example 21, 37° C., 5 h, ΔBG Absent, EV 0.1 a.u.
[21] = Example 21, 37° C., 5 h, ΔBG Absent, EV 1 a.u. (x1=10 μg/mL)
[22] = Example 21, 37° C., 5 h, ΔBG Present (positives at EV 0 subtracted), EV 1 a.u.
[23] = Example 21, 37° C., 5 h, ΔBG Present, EV 0.0001 a.u.
[24] = Example 21, 37° C., 5 h, ΔBG Present, EV 0.001 a.u.
[25] = Example 21, 37° C., 5 h, ΔBG Present, EV 0.01 a.u.
[26] = Example 21, 37° C., 5 h, ΔBG Present, EV 0.1 a.u.

“TAMRA-GGPLGLAGGK(TQ3) ({TAMRA}-GGPLGLAGGK(TQ3)) [Custom #2T]” was tested, and the “Particle Number of positives” value ([1]; Particle MS300C) was 1,460, the “Particle Number of positives” value ([1]; Particle Simoa) was 359 and the Extracellular vesicle concentration [2, 4] was 0.01 ×10^5/μg of protein. For the same substance, the “Particle Expected value λ” value [2, 4] was 0.002, the Extracellular vesicle concentration [2, 5] was 1.4687 ×10^5/μg of protein and the “Particle Expected value λ” value [2, 5] was 0.2937. For the same substance, the Extracellular vesicle concentration [2, 6] was 0.0098 ×10^5/μg of protein, the “Particle Expected value λ” value [2, 6] was 0.00196 and the Extracellular vesicle concentration [2, 7] was 0.3874 ×10^5/μg of protein. For the same substance, the “Particle Expected value λ” value [2, 7] was 0.07748.

“[5-FAM]GGPLGLAGGK(TQ2)[OH] (5FAM-GGPLGLAGGK(TQ2)-OH) [Custom #2]” was tested, and the “Particle Number of positives” value ([1]; Particle MS300C) was 1,288, the “Particle Number of positives” value ([1]; Particle Simoa) was 1,234 and the Extracellular vesicle concentration ([2]; Example 28, 1 μg of protein, 5.0×10^5 particles) was 8.0×10^4 extracellular vesicles/μg of protein. For the same substance, the “Expected value λ” value [2, 8] was 0.000493, the Number of positives [2, 8] was 1 and the Positive ratio [2, 8] was 0.000493. The “Expected value λ” value [2, 9] was 0.1599, the Number of positives [2, 9] was 338 and the Positive ratio [2, 9] was 0.1478. For the same substance, the “expected value Δλ per particle (value obtained by subtracting BG)” value ([2]; Example 28, 5 h) was 0.1594, the Extracellular vesicle concentration ([2]; Example 31, 0.5 μg of protein, 2.0×10^6 particles) was 1.8×10^5 extracellular vesicles/μg of protein and the “Expected value λ” value [2, 10] was 0.04458 and 0.04511. For the same substance, the Number of positives [2, 10] was 402 and 410, the Positive ratio [2, 10] was 0.0436 and 0.04411 and the “Expected value λ” value [2, 11] was 0.04484. The Number of positives [2, 11] was 812, the Positive ratio [2, 11] was 0.04386 and the “expected value Δλ per particle (value obtained by subtracting BG)” value ([2]; Example 31, 5 h, sum of the two images) was 0.04435. The “Expected value λ (MMP14)” value ([2]; EV 0 (BG)) was 0.00428, the “Number of positives (MMP14)” value ([2]; EV 0 (BG)) was 9 and the “Expected value λ (MMP14)” value ([2]; EV X1 (sample 10 μg/mL)) was 0.139. For the same substance, the “Number of positives (MMP14)” value ([2]; EV X1 (sample 10 μg/mL)) was 298, the “Expected value λ (MMP14)” value ([2]; EV X1/3) was 0.0829 and the “Number of positives (MMP14)” value ([2]; EV X1/3) was 218. The “Expected value λ (MMP14)” value ([2]; EV X1/9) was 0.0569, the “Number of positives (MMP14)” value ([2]; EV X1/9) was 162 and the “Expected value λ (MMP14)” value ([2]; EV X1/27) was 0.0315. For the same substance, the “Number of positives (MMP14)” value ([2]; EV X1/27) was 78, the “Expected value λ (MMP14)” value ([2]; EV X1/81) was 0.0118 and the “Number of positives (MMP14)” value ([2]; EV X1/81) was 19. For the same substance, the “Expected value λ (MMP14)” value ([2]; EV X1/243) was 0.0108, the “Number of positives (MMP14)” value ([2]; EV X1/243) was 20 and the “Expected value λ (MMP14)” value ([2]; EV X1/729) was 0.0120. The “Number of positives (MMP14)” value ([2]; EV X1/729) was 22, the “extracellular vesicles detected with MMP14 present in wells (particles) containing extracellular vesicles detected with at least any one of CD9, CD63, and CD81” value ([2]; Example 33, concentration [a.u.] of x1, multiplex with resorufin β-D-galactopyranoside) was 99.7% and the Extracellular vesicle concentration [2, 4] was 0.0113 ×10^5/μg of protein. The “Particle Expected value λ” value [2, 4] was 0.00226, the Extracellular vesicle concentration [2, 5] was 1.4495 ×10^5/μg of protein and the “Particle Expected value λ” value [2, 5] was 0.2899. For the same substance, the Extracellular vesicle concentration [2, 6] was 0.0061 ×10^5/μg of protein, the “Particle Expected value λ” value [2, 6] was 0.00122 and the Extracellular vesicle concentration [2, 7] was 1.5232 ×10^5/μg of protein. For the same substance, the “Particle Expected value λ” value [2, 7] was 0.3046, the Extracellular vesicle concentration ([3]; Example 27) was 1.1×10^9 /μg of protein and the “Expected value λ” value [3, 12] was 0.000023. The Number of positives [3, 12] was 2, the Positive ratio [3, 12] was 0.000023 and the “Expected value λ” value [3, 13] was 0.004117. The Number of positives [3, 13] was 357, the Positive ratio [3, 13] was 0.004109 and the “Expected value λ” value [3, 14] was 0.03235. For the same substance, the Number of positives [3, 14] was 2,766, the Positive ratio [3, 14] was 0.03184 and the “λ at x1 in the approximation of FIG. 58” value ([3]; Example 27, 5 h) was 0.2767. The “concentration of the extracellular vesicles that can be detected based on the MMP14 activity” value ([3]; Example 27, reaction solution 5 μg of protein/mL, 50 fL) was 5.5e+09 mL⁻¹, the “Expected value λ” value [3, 15] was 0.2767 and the Number of positives [3, 15] was 20,982. It also gave a Positive ratio [3, 15] of 0.2417.

“[5-FAM]GRIGFLRTAK(TQ2)[OH] (5FAM-GRIGFLRTAK(TQ2)-OH) [Custom #1]” was tested, and the “Expected value λ” value [3, 16] was 0.000656, the Number of positives [3, 16] was 38 and the Positive ratio [3, 16] was 0.000656. The “Expected value λ” value [3, 17] was 0.000725, the Number of positives [3, 17] was 42 and the Positive ratio [3, 17] was 0.000724. For the same substance, the “Expected value λ” value [3, 18] was 0.000985, the Number of positives [3, 18] was 57 and the Positive ratio [3, 18] was 0.000984. The “Expected value λ” value [3, 19] was 0.00207, the Number of positives [3, 19] was 119 and the Positive ratio [3, 19] was 0.00206. For the same substance, the “Expected value λ” value [3, 20] was 0.0137, the Number of positives [3, 20] was 789 and the Positive ratio [3, 20] was 0.0136. For the same substance, the “Expected value λ” value [3, 21] was 0.149, the Number of positives [3, 21] was 8,036 and the Positive ratio [3, 21] was 0.139. For the same substance, the “Expected value λ” value [3, 22] was 0.148, the Number of positives [3, 22] was 7,998 and the Positive ratio [3, 22] was 0.138. The “Expected value λ” value [3, 23] was 0.000069, the Number of positives [3, 23] was 4 and the Positive ratio [3, 23] was 0.000069. For the same substance, the “Expected value λ” value [3, 24] was 0.000328, the Number of positives [3, 24] was 19 and the Positive ratio [3, 24] was 0.000328. For the same substance, the “Expected value λ” value [3, 25] was 0.00141, the Number of positives [3, 25] was 81 and the Positive ratio [3, 25] was 0.0014. For the same substance, the “Expected value λ” value [3, 26] was 0.013, the Number of positives [3, 26] was 751 and the Positive ratio [3, 26] was 0.0129. For the same substance, the “λ at x1 in an approximation with BG correction” value ([3]; Example 21, 5 h) was 0.120, the “λ at x1 in an approximation without BG correction” value ([3]; Example 21, 5 h) was 0.102 and the “extracellular vesicle concentration at which MMP14 activity was able to be detected in the microcompartment” value ([3]; Example 21, Simoa Discs, buffer (4), reporter 5 μM, 37° C., 5 h) was at least 100 ng/mL. For the same substance, the Extracellular vesicle concentration ([3]; Example 21, with BG correction) was 2.4e+09 mL⁻¹, the “extracellular vesicles in which MMP14 activity can be detected, contained in 1 μL of the extracellular vesicles (50 μg of protein in 50 μL of PBS)” value ([3]; Example 21, with BG correction) was 2.4×10^8 and the Extracellular vesicle concentration ([3]; Example 21, without BG correction) was 2.0×10^8 /μg of protein. For the same substance, the Extracellular vesicle concentration ([3]; Example 21, without BG correction, reaction solution 10 μg of protein/mL, 50 fL) was 2e+09 mL⁻¹.
